Here are results for six molecules from patent US20150078996A1 (Merck Sharp & Dohme, published 2015).

The target in assay [1] is IGF-IR expressed on baculovirus-infected Sf9 insect cells (UniProt P08069). In words: flow cytometry on Sf9 cells expressing IGF-IR. Background: Flow cytometry measures light scatter and fluorescence of single cells or particles in a stream.
In assay [2] the target is IR (insulin receptor) expressed on baculovirus-infected Sf9 insect cells (UniProt P06213). In words: flow cytometry on Sf9 cells expressing IR.
In assay [3] the target is IGF-IR expressed on baculovirus-infected Sf9 insect cells (UniProt P08069). As to the kind of experiment: flow cytometry on Sf9 cells expressing IGF-IR, secondary antibody alone.
Assay [4] deals with IR (insulin receptor) expressed on baculovirus-infected Sf9 insect cells (UniProt P06213). As to the kind of experiment: flow cytometry on Sf9 cells expressing IR, secondary antibody alone.
Assay [5] concerns the target T1, IGF-IR expressed on baculovirus-infected Sf9 insect cells (UniProt P08069 31-1367, limits assumed).
T1 construct: whole, on cells; also called IGF-1R + cells
In words: flow cytometry on Sf9 cells expressing IGF-IR.

For assay [6], the target named is T2, IR (insulin receptor) expressed on baculovirus-infected Sf9 insect cells (UniProt P06213 28-1382, limits assumed).
T2 construct: whole, on cells; also called IR + cells
In words: flow cytometry on Sf9 cells expressing IR.

The target in assay [7] is recombinant human IGF-1R extracellular domains (R&D Systems) (human) (UniProt P08069). As to the kind of experiment: SPR Biacore X, 5 min injection of 7.4 µg/ml over 439 RU of amine-coupled soluble IGF-1R.
For assay [8], the target named is T3, recombinant human insulin receptor (IR) extracellular domains (R&D Systems) (human, UniProt P06213-2 28-944, limits assumed).
T3 construct: extracellular domain; also called IR ECD
As to the kind of experiment: western blot after SDS-PAGE, 12B1 as probe. On the technique in general: A western blot detects proteins with antibodies after separation by electrophoresis.
Method: Proteins were analyzed by SDS-PAGE electrophoresis on Criterion 7% homogeneous polyacrylamide gels (BioRad, Marnes la Coquette, France) under reducing and non-reducing conditions. Equivalent quantities of 4, 20 and 100 ng were loaded for pure recombinant IR and IGF-1R ECD whereas higher protein quantities, from 0.2 to 6 μg, were needed for membrane extracts to detect IGF-1R by western blot. Proteins were transferred onto nitrocellulose membrane. […] Proteins were further detected by chemiluminescence (ECL, Amersham Biosciences, Orsay, France) after incubation with a horseradish peroxidase-conjugated anti-mouse IgG polyclonal antibody (Amersham Biosciences, 1:3,000 dilution) for 1 h at room temperature and extensive washes.

In assay [9] the target is T2, IR (insulin receptor) expressed on …. As to the kind of experiment: flow cytometry on Sf9 cells expressing IR. From the text:
At this stage of the selection process, only hybridomas secreting monoclonal antibodies that recognized both the recombinant and the native receptors were selected, cloned, produced and then purified before being tested by FACScan analysis, according to the method described above, on Sf9 insect cells expressing either IGF-IR or IR in order to eliminate hybridomas recognizing both the two receptors.
This is another data set of the same source.

Assay [10] has as its target recombinant human IGF-1R extracellular domains (R&D Systems) (human) (UniProt P08069). As to the kind of experiment: SPR Biacore X, 5 min injection of 8.24 µg/ml over 439 RU of amine-coupled soluble IGF-1R. In general terms: In SPR one partner is held on a chip, and binding of the other changes the refractive index at the surface.
Assay [11] concerns the target full length hIGF-1R from membrane extracts of NIH 3T3 cells overexpressing IGF-1R (human) (UniProt P08069). In words: displacement of 125I-IGF-1 from hIGF-1R captured on FlashPlate.

Regarding “commercially available anti-IGF-1R antibody αIR3”, the MFI in assay [1] amounted to 35; in assay [2], 32.
With “secondary anti-species antibody coupled to a fluorochrome (Anti-Mouse FITC)”, the MFI worked out at 9 in assay [3] and 13 in assay [4].

B1: monoclonal antibody 12D5 (antibody, V domains shown)
VH: QVQLKESGPGLVAPSQSLSITCTVSGFSLNEYGVSWIRQPPGKGLEWLGVIWGGRDTYYHSPLKSRLSITKDNSKSQVFLKMNSLQTDDTAMYYCAKHEGMDYWGQGTSVTVSS
VL: DIVMTQSQKFMSTSVGDRVSVTCKASQNVVTNVAWYQHKPGHSPKPLIYSASYRYSGVPDRFTGSGSGTDFTLTINNVQSEDLAEYFCHQYNNFPLTFGAGTKLELK
For the molecule B1, the MFI in [5] came out at 50; in [6] it was 10.6.

B2: mouse monoclonal antibody 12B1 (anti-IGF-1R) (antibody, mouse IgG1, V domains shown)
VH: QVQLKESGPDLVAPSQSLSITCTVSGFSLTNYGVHWVRQFPGKGLEWLGVIWAGGNTNYNSALMSRLTISKDNSKSQVFLKMNSLQTDDTAVYYCAREYGSTYVAWFAHWGQGTLVTVSS
VL: ENVLTQSPAIMSASPGEKVTMTCGASSSVSSSFLHWYQQKSGASPKLWIYSTSNLASGVPTRFSGSGSGTSYSLTISSVEAEDAATYYCQQYSGYPLTFGAGTKLELK
notes: also called MAb 12B1; clone 12B1
Turning to B2, in assay [7], the response (RU) worked out at 146 RU. The MFI worked out at 54 in [5] and 10.5 in [6]. Besides, the binding result in assay [8] is recorded as “no binding (tested: 100 ng per lane)”; in [9], “no binding”.

B3: monoclonal antibody 2D10 (antibody, V domains shown)
VH: EVNLVESGGILVKPGGSLRLSCAASGFTFSNYAMSWVRQTPEKRLEWVASIGSAGYIHYPDSVKGRFTISRDNARNILYLQMSSLRSEDTAMYYCAREGGLVWFAYWGQGTLVTVSA
VL: ETTVTQSPASLSVATGEKVTIRCITSTDIDDDMNWYQQKPGEPPKLLISEGNTLRPGVPSRFSSSGYGTDFVLTIENTLSEDVADYYCLQSDKMPLTFGAGTKLELK
Consider B3, for which the values for the MFI in [5] and in assay [6] were 42.5 and 10.6, respectively.

B4: mouse monoclonal antibody 7C10 (anti-IGF-1R) (antibody, from another filing, V domains shown)
VH: DVQLQESGPGLVKPSQSLSLTCSVTGYSITGGYLWNWIRQFPGNKLEWMGYISYDGTNNYKPSLKDRISITRDTSKNQFFLKLNSVTNEDTATYYCARYGRVFFDYWGQGTTLTVSS
VL: DVLMTQIPLSLPVSLGDQASISCRSSQSIVHSNGNTYLQWYLQKPGQSPKLLIYKVSNRLYGVPDRFSGSGSGTDFTLKISSVEAEDLGVYYCFQGSHVPWTFGGGTKLEIK
As to B4, the response (RU) in assay [10] is 180 RU. In addition, the IC50 (in general, the concentration at which inhibition is half-maximal) in [11] came out at 0.2 nM.
